Changes are numbered by the printed parent chain. Several values for one entry are separate records, joined by “and”; a condition that tells them apart may be missing. Equal entries are not always repeated.
Columns and labels:
[1] = biological target: T1, recombinant human EphA5 (rhEphA5) antigen (Homo sapiens, UniProt P54756); assay: Biacore multi-cycle kinetic analysis of purified antibodies, 1:1 model; format: binding; details: for binding to EphA5 relative to the chimeric antibody (VH0/VK0): purified antibodies, multi-cycle kinetics
T1 construct: purchased R and D systems 3036-A5
T1 sequence (P54756 25-573 limits assumed): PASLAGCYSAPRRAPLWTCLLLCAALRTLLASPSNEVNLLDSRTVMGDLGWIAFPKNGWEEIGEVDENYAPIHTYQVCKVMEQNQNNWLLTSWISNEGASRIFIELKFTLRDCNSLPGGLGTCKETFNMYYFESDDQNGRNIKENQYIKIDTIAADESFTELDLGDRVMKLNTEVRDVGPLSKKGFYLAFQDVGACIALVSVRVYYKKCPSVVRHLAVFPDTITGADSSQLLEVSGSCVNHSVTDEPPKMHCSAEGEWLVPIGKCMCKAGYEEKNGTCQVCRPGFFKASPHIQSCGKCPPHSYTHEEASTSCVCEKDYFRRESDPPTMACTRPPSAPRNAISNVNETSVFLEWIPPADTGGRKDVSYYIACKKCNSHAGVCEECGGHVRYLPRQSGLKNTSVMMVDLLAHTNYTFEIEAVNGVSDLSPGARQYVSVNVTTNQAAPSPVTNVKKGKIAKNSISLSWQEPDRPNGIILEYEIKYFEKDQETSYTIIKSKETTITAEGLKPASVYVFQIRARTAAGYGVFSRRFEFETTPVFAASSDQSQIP
Experimental: In order to assess the binding of the six lead humanized variants to rhEphA5 antigen, multi-cycle kinetic analysis (FIG. 68) was performed on purified material. Kinetic experiments were performed at 25° C. on a Biacore T200 running Biacore T200 Control software V2.0.1 and Evaluation software V3.0 (GE Healthcare, Uppsala, Sweden).
HBS-P+ (GE Healthcare, Uppsala, Sweden), supplemented with 1% BSA w/v (Sigma, Dorset, UK) was used as running buffer as well as for ligand and analyte dilutions. Purified lead antibodies were diluted to 0.5 μg/mL in running buffer and at the start of each cycle, loaded onto Fc2, Fc3 and Fc4 of an anti-human IgG CM5 sensor chip (GE Healthcare, Little Chalfont, UK). Antibodies were captured at a flow rate of 10 μl/min to give an immobilization level (RL) of ~50 RU. The surface was then allowed to stabilize.
Multi-cycle kinetic data was obtained using recombinant EphA5 as the analytes injected at a flow rate of 30 μl/min to minimize any potential mass transfer effects. A five point, three-fold dilution range from 1.11 nM to 270 nM of EphA5 was prepared in running buffer. For each concentration, the association phases were monitored for 210 seconds and the dissociation phase was measured for 900 seconds. Regeneration of the sensor chip surface was conducted between cycles using two injections of 3 M MgCl2. Multiple repeats of a blank and of EphA5 were programmed into the kinetic run in order to check the stability of both the surface and analyte over the kinetic cycles.
The signal from the reference channel Fc1 (no IgG captured) was subtracted from that of Fc2, Fc3 and Fc4 to correct for bulk effect and differences in non-specific binding to a reference surface. The signal from each IgG blank run (IgG captured but no antigen) was subtracted to correct for differences in surface stability. The double referenced sensorgrams were fitted with the Langmuir (1:1) binding model where the closeness of fit of the data to the model is evaluated using the Chi square value which describes the deviation between the experimental and fitted (observed and expected) curves. The fitting algorithm seeks to minimize the Chi square value.
A summary of the kinetic constants determined from the 1:1 model fitted curves is shown in FIG. 19 with fitted curves shown in FIG. 20.

[2] = Thermal ramp stability (UNcle, Sypro Orange fluorescence and static light scattering); format: physicochemical
Text: Thermal ramp stability experiments (Tm and Tagg) are well established methods for ranking proteins and formulations for stability. A protein's denaturation profile provides information about its thermal stability and represents a structural ‘fingerprint’ for assessing structural and formulation buffer modifications. A widely used measure of the thermal structural stability of a protein is the temperature at which it unfolds from the native state to a denatured state. For many proteins, this unfolding process occurs over a narrow temperature range and the mid-point of this transition is termed ‘melting temperature’ or ‘Tm’. To determine the melting temperature of a protein, UNcle measures the fluorescence of Sypro Orange (which binds to exposed hydrophobic regions of proteins) as the protein undergoes conformational changes.
Samples for each variant were formulated in PBS and Sypro Orange at a final concentration of 1 mg/mL. 9 μL of each sample mixture was loaded in duplicate into UNi microcuvettes. Samples were subjected to a thermal ramp from 25-95° C., with a ramp rate of 0.3° C./minute and excitation at 473 nm. Full emission spectra were collected from 250-720 nm, and the area under the curve between 510-680 nm was used to calculate the inflection points of the transition curves (Tonset and Tm). Monitoring of static light scattering (SLS) at 473 nm allowed the detection of protein aggregation, and Tagg (onset of aggregation) was calculated from the resulting SLS profiles. Thermal stability values determined lie in a broad range from 57.9 to 69.6° C. (Tm1), 55.1 to 65.2° C. (Tonset) and 65.6 to 70.2° C. (Tagg) with the humanized leads generally showing improved profiles when compared to the chimeric antibody. […] All humanized antibodies appear to have a higher Tm1, Tonset and Tagg compared to the chimeric antibody.

[3] = biological target: T2, H460 cell line stably expressing EphA5 (Homo sapiens, UniProt P54756); assay: Flow cytometry analysis of cell binding, EphA5-positive cells; details: starting 10 μg/ml, four-fold serial dilution, 4° C. 30 minutes
T2 construct: A H460 cell line stably expressing EphA5 (provided by Rutgers) was used; endogenous in cells; host or cells: H460 human lung carcinoma cells (provided by Rutgers)
T2 sequence (P54756 25-1037): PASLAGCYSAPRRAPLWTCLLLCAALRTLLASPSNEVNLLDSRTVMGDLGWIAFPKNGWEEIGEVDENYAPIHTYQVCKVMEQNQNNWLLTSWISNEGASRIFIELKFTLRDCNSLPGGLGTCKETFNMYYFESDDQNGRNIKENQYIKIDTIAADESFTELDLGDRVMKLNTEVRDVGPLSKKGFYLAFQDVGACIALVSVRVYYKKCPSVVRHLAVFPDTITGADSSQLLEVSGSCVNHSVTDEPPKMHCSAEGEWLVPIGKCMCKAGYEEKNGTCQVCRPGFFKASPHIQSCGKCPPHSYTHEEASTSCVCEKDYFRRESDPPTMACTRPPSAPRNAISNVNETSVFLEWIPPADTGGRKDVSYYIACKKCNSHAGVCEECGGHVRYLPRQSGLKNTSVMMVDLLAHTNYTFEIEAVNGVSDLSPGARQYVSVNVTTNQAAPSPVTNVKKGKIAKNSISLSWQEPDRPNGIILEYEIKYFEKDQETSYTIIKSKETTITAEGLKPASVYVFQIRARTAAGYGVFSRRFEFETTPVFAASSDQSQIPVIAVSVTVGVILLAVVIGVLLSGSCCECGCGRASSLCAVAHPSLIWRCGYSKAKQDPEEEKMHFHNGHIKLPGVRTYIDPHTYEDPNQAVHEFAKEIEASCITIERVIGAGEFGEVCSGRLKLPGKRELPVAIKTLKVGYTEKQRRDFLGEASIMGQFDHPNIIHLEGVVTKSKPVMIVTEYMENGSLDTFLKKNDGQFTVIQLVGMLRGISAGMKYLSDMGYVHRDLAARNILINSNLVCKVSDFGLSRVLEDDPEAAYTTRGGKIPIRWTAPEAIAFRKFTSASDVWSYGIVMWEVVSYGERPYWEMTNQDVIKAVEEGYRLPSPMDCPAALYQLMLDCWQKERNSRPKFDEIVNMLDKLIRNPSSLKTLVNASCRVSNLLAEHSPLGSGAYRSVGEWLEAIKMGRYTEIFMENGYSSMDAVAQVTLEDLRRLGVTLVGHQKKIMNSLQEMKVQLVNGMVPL
Experimental: (§1) A H460 cell line stably expressing EphA5 (provided by Rutgers) was used, alongside H226 cells as a negative control, to test for antibody binding in a flow cytometry assay. The cell lines were first assessed for target expression using 10 μg/ml of the murine 11C12 provided by Rutgers) and MolgG1 non-binging control (Biolegend, California, US). Goat anti-mouse Alexa Fluor 647 (Thermo Fisher, Loughborough, UK) was used for antibody detection.
(§2) For cell binding assays, both cell lines were resuspended in FACS buffer (PBS+1% BSA+0.1% sodium azide) and seeded in 96 well U bottom plates at 1×105 (100 μl) cells per well. The chimeric and six purified humanized variants were tested in the assay alongside the 11C12 murine positive control, MolgG1 and HulgG1 non-binding controls. Samples were prepared at a starting concentration of 10 μg/ml in FACS buffer and underwent a four-fold seven point serial dilution for testing with H460 cells and a three-fold three point serial dilution for the H226 cells. […] Median fluorescence intensity (MFI) was measured using an Attune NxT Flow Cytometer (Thermo Fisher, Loughborough, UK) and 10,000 gated events were acquired per sample. For data analysis, live cell populations were gated based on the forward and side scatter dot plot allowing the Alexa Fluor 647 MFI values to be measured in the RL1 channel.

H226 cells (EphA5−) = assay: Flow cytometry analysis of cell binding, EphA5-negative control cells; parameters: species or system human; details: starting 10 μg/ml, three-fold serial dilution
Experimental: as §1, §2

B1: VH0/VK0: chimeric anti-EphA5 antibody, murine 11C12 variable regions (VH SEQ ID NO:1, VL SEQ ID NO:8), human IgG1/kappa constant regions (antibody, V domains shown)
VH: EVTLKESGGGLVQPGGSRKLSCAASGFTFSTFGIHWVRQAPEKGLEWVAYISGASTTIYYADTVKGRFTISRDNPKNTLFLQMTSLRSEDTAMYYCARYGTSFPYGLDYWGQGTSVTVSS
VL: DIVMTQSPGSLAVSLGQRATISCKASQSVDYDGDSYMNWYQQKPGQPPKLLIYGASNLESGIPARFSGSGSGTDFTLNIHPVEEEDAASYYCQQSNEDPFTFGSGTKLEIK
modifications: human IgG1/kappa constant regions without entry
- kd ([1]; Biacore T200, 25° C., IgG captured on anti-human IgG chip): 0.0015 s⁻¹
- RMAX ([1]; fitted 1:1 model): 47.8
- Average Tm2 (° C.) ([2]; average of duplicates): 65.83 °C
- Average Tonset (° C.) ([2]; average of duplicates): 55.1 °C
- Average Tm1 (° C.) ([2]; average of duplicates, 1 mg/mL in PBS): 57.9 °C
- Average Tagg 473 (° C.) ([2]; average of duplicates, SLS at 473 nm): 65.6 °C
- Tonset (° C.) ([2]; single replicate): 54.92 °C and 55.23 °C
- Tm2 (° C.) ([2]; single replicate, 1 mg/mL in PBS): 65.83 °C
- Tm1 (° C.) ([2]; single replicate, 1 mg/mL in PBS, ramp 25-95° C.): 57.83 °C and 57.87 °C
- Tagg 473 (° C.) ([2]; single replicate, SLS at 473 nm): 65.72 °C and 65.60 °C
- number of thermal transitions detected ([2]; thermal ramp 25-95° C.): two transitions

B2: 11C12: anti-human EphA5 monoclonal murine antibody, parental antibody and positive control (antibody, V domains shown)
VH: B1 VH
VL: B1 VL
- binding to H460 (EphA5+) cells, MFI dose response [3]: bound to the positive cell line in a concentration dependent manner
- binding to H226 (EphA5−) cells (H226 cells (EphA5−)): no binding

B3: VH4/VK4: humanized anti-EphA5 IgG1/kappa antibody; VH SEQ ID NO:5, VL SEQ ID NO:12 (antibody, V domains shown)
VH: B1 VH with T3Q, K5V, R18L, E42G, P75S, F80Y, T84N, S88A, M93V, S115L
VL: DIVMTQSPDSLAVSLGERATINCKSSQSVDYDGDSYMNWYQQKPGKAPKLLIYGASNLESGIPDRFSGSGSGTDFTLTISRLEPEDAASYYCQQSNEDPFTFGQGTKLEIK
- binding to EphA5 relative to the chimeric antibody (VH0/VK0) [1]: within two-fold of the chimeric antibody

B4: VH3/VK4: humanized anti-EphA5 IgG1/kappa antibody; VH SEQ ID NO:4, VL SEQ ID NO:12 (antibody, V domains shown)
VH: B1 VH with T3Q, K5V, R18L, E42G, P75S, F80Y, T84N, S115L
VL: B3 VL
- binding to EphA5 relative to the chimeric antibody (VH0/VK0) [1]: within two-fold of the chimeric antibody

B5: VH5/VK4: humanized anti-EphA5 IgG1/kappa antibody; VH SEQ ID NO:6, VL SEQ ID NO:12 (antibody, V domains shown)
VH: EVQLVESGGGLVQPGGSLKLSCAASGFTFSTFGIHWVRQAPGKGLEWVAYISGASTTIYYADSVKGRFTISRDNSKNTLYLQMNSLRAEDTAVYYCARYGTSFPYGLDYWGQGTLVTVSS
VL: B3 VL
- binding to EphA5 relative to the chimeric antibody (VH0/VK0) [1]: within two-fold of the chimeric antibody
- ranking by Tagg (SLS profiles) ([2]; among the chimeric and six lead humanized variants): highest Tagg values

B6: VH5/VK2: humanized anti-EphA5 IgG1/kappa antibody; VH SEQ ID NO:6, VL SEQ ID NO:10 (antibody, V domains shown)
VH: B5 VH
VL: B3 VL with S25A
- binding to EphA5 relative to the chimeric antibody (VH0/VK0) [1]: within two-fold of the chimeric antibody
